Experiments:
[1] = biological target: cell surface receptors on glycanase treated PBMC; experiment: saturation binding of 125I-RANTES-heparin complexes to glycanase treated activated human PBMC
[2] = biological target: cell surface receptors on glycanase treated PBMC; experiment: saturation binding of 125I-RANTES-heparin complexes to glycanase treated activated human PBMC, nonlinear curve fitting
[3] = biological target: cell surface receptors on glycanase treated PBMC; experiment: saturation binding of 125I-RANTES-heparin complexes to glycanase treated activated human PBMC, gamma counting, nonlinear curve fitting after subtracting non-specific binding
CCR5 (human) [4] = biological target: CCR5 (human) (UniProt P51681); experiment: flow cytometry of the activated human PBMC with mAb 2D7
CCR5 (human) [5] = biological target: CCR5 (human) (UniProt P51681); experiment: glycanase treated PBMC preincubated with mAb 2D7, then 125I-RANTES-heparin complexes as labelled ligand, gamma counting; reference normal mouse IgG

Chain of UniProt P51681 (P51681 whole entry): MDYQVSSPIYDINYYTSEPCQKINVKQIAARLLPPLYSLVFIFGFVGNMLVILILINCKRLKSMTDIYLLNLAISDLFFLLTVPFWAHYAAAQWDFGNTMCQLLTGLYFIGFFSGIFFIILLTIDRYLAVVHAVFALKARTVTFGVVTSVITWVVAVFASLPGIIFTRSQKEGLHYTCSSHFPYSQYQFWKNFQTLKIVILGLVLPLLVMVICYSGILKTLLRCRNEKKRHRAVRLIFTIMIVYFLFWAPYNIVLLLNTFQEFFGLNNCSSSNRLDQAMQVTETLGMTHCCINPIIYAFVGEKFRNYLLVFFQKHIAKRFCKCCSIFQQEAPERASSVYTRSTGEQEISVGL

saturating concentration [1] [nM]	Bmax (binding sites per cell) [2]	Kd [3] [nM]	percent of cells expressing CCR5 (stained by 2D7) (CCR5 (human) [4]) [%]	percent reduction of 125I-RANTES binding (CCR5 (human) [5]) [percent]	Substance
> 1	900	1.5			125I-labeled RANTES-heparin complexes (from UniProt P13501 24-91) (ligand)
			100	40	anti-CCR5 monoclonal antibody 2D7

— patent publication US6399078
